This note sets out measurements from patent US9340584 (GENERAL HOSPITAL, dated 2016).

One test addresses T1, mouse serum albumin (mouse, UniProt P07724 25-608, biotinylated).
T1 construct: also called MSA; MSA-biotin
The experiment in a line: phage ELISA, MSA-biotin on streptavidin plate.

A further test has as its target T2, rat serum albumin (rat, UniProt P02770 25-608, biotinylated).
T2 construct: also called RSA; RSA-biotin
The experiment in a line: phage ELISA, RSA-biotin on streptavidin plate.

Test [1] concerns the target T3, CD5 expressed on the cell surface (transfected HEK293T cells; Raji cells ectopically expressing wild type CD5) (UniProt P06127 25-495, limits assumed).
T3 sequence (looked up): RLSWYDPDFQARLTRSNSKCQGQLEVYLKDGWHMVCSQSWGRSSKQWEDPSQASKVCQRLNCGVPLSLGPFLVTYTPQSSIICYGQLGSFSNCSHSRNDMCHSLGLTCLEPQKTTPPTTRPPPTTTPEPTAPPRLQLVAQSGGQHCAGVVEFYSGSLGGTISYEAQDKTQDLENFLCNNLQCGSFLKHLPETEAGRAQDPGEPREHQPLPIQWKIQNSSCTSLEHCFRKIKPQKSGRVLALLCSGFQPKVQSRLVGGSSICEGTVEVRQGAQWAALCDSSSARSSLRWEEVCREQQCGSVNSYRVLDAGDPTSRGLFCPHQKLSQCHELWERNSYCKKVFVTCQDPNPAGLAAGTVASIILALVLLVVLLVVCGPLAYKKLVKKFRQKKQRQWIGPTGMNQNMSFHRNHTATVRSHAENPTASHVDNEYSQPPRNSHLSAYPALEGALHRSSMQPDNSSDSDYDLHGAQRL
The experiment in a line: cell-based or functional assay.

Another test addresses T4, control CD19 protein (UniProt P15391 20-291, limits assumed).
T4 sequence (looked up): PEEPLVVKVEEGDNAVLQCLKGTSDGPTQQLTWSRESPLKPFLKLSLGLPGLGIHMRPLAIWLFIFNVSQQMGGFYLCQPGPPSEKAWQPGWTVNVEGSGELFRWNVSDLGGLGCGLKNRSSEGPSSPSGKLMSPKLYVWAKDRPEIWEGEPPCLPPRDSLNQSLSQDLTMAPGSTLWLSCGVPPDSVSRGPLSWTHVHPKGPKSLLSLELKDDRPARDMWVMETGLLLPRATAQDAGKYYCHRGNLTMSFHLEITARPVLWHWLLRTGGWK
Put plainly: phage ELISA.

The target in test [2] is T5, streptavidin (streptavidin coated plate, wells without immobilized CD5) (UniProt P22629 37-163, limits assumed).
T5 construct: also called control streptavidin
T5 sequence (P22629 37-163 limits assumed): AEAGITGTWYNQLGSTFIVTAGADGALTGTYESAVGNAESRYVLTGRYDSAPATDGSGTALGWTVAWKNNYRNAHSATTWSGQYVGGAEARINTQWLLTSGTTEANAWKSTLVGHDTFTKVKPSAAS
The experiment in a line: phage ELISA, streptavidin coated wells without immobilized CD5.

T1 sequence (P07724 25-608 limits assumed): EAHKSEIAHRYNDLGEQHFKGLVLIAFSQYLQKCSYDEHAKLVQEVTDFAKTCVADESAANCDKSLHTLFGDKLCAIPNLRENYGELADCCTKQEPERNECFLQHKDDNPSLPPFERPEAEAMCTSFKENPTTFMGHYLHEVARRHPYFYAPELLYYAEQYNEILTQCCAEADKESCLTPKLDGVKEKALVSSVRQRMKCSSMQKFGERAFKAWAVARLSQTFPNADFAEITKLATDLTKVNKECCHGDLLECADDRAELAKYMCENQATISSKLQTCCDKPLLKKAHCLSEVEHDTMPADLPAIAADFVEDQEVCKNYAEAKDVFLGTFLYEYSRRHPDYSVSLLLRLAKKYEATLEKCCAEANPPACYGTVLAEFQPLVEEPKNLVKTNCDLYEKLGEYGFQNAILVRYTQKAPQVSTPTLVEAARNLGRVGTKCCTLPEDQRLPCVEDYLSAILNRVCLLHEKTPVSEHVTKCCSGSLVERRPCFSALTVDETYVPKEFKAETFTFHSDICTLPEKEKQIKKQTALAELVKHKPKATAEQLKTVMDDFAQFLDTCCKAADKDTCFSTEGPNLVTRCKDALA
T2 sequence (P02770 25-608 limits assumed): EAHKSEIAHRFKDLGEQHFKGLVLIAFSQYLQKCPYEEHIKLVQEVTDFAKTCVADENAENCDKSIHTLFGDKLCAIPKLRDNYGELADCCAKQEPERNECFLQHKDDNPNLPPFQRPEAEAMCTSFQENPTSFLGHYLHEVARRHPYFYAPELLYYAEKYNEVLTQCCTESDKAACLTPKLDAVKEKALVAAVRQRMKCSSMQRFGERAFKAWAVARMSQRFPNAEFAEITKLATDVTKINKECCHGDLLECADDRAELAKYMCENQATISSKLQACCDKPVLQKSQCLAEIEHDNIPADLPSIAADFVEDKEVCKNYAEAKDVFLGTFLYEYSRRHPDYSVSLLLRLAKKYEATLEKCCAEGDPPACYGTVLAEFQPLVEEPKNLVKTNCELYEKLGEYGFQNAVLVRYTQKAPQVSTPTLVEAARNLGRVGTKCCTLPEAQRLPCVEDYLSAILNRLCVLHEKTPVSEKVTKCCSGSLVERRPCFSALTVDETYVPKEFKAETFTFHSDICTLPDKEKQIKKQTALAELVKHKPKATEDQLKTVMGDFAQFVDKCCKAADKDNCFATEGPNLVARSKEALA

B1: HSA binder E1 (TRX-3 library), phage-displayed (designed binder)
chain: MVKQIESKTAFQEALDAAGDKLVVVDFSATRSENDRWNEWSGPSKMIKPFFHSLSEKYSNVIFLEVDVDDAQDVASEALIAGPFWYSPTFQFFKKGQKVGEFSGANKEKLEATINELV
notes: AGPF loop 3′ motif
Take B1: the binding result with mouse serum albumin and with rat serum albumin was “no binding” in each case.

B2: E6-aerolysin fusion protein (other)
chain: MVKQIESKTAFQEALDAAGDKLVVVDFSATNTIKHGGSRWSGPSKMIKPFFHSLSEKYSNVIFLEVDVDDAQDVASEAEKGILVSPLPTFQFFKKGQKVGEFSGANKEKLEATINELVGEIPTLSALDIPDGDEVDVQWRLVHDSANFIKPTSYLAHYLGYAWVGGNHSQYVGEDMDVTRDGDGWVIRGNNDGGCDGYRCGDKTAIKVSNFAYNLDPDSFKHGDVTQSDRQLVKTVVGWAVNDSDTPQSGYDVTLRYDTATNWSKTNTYGLSEKVTTKNKFKWPLVGETELSIEIAANQSWASQNGGSTTTSLSQSVRPTVPARSKIPVKIELYKADISYPYEFKADVSYDLTLSGFLRWGGNAWYTHPDNRPNWNHTFVIGPYKDKASSIRYQWDKRYIPGEVKWWDWNWTIQQNGLSTMQNNLARVLRPVRAGITGDFSAESQFAGNIEIGAPVPLAADSKVRRARSVDGAGQGLRLEIPLDAQELSGLGFNNVSLSVTPAANQ
modifications: labelled with NHS-fluorescein for FACS (sites not given)
Consider B2, for which, in test [1], the “EC50, MTS cytotoxicity assay on CD5+ Raji cells, 48 hours” value worked out at 132 nM.

B3: HSA binder G5 (TRX-3 library), phage-displayed (designed binder)
chain: MVKQIESKTAFQEALDAAGDKLVVVDFSATRLRTGGHPYWSGPSKMIKPFFHSLSEKYSNVIFLEVDVDDAQDVASEAVYVSLSRHRPTFQFFKKGQKVGEFSGANKEKLEATINELV
For B3, the binding result with mouse serum albumin and with rat serum albumin was “no binding” throughout.

B4: CD5 binder A1 (TRX-3 library) (designed binder)
chain: MVKQIESKTAFQEALDAAGDKLVVVDFSATQWWGWIDGQWSGPSKMIKPFFHSLSEKYSNVIFLEVDVDDAQDVASEAYPLFGMAALPTFQFFKKGQKVGEFSGANKEKLEATINELV
Consider B4, for which the binding result with control CD19 protein is recorded as “no binding”.

B5: CD5 binder E6 (TRX-3 library), phage-displayed (designed binder)
chain: MVKQIESKTAFQEALDAAGDKLVVVDFSATNTIKHGGSRWSGPSKMIKPFFHSLSEKYSNVIFLEVDVDDAQDVASEAEKGILVSPLPTFQFFKKGQKVGEFSGANKEKLEATINELV
notes: also called E6 phage
In the case of B5, the binding result in test [2] is “no binding”.

B6: HSA binder E5 (TRX-3 library), phage-displayed (designed binder)
chain: MVKQIESKTAFQEALDAAGDKLVVVDFSATRRNERARDWWSGPSKMIKPFFHSLSEKYSNVIFLEVDVDDAQDVASEALAAGPFYLLPTFQFFKKGQKVGEFSGANKEKLEATINELV
notes: AGPF loop 3′ motif
In the case of B6, the binding result in the test with mouse serum albumin and with rat serum albumin was “no binding” in each case.

B7: CD5 binder A5 (TRX-3 library) (designed binder)
chain: MVKQIESKTAFQEALDAAGDKLVVVDFSATQCNTGESHDWSGPSKMIKPFFHSLSEKYSNVIFLEVDVDDAQDVASEAWSPLIMCTMPTFQFFKKGQKVGEFSGANKEKLEATINELV
Turning to B7, in the test with control CD19 protein, the binding result is listed as “no binding”.

B8: CD5 binder E10 (TRX-3 library) (designed binder)
chain: MVKQIESKTAFQEALDAAGDKLVVVDFSATKERDSAWDDWSGPSKMIKPFFHSLSEKYSNVIFLEVDVDDAQDVASEAFYWSYPSLPPTFQFFKKGQKVGEFSGANKEKLEATINELV
For the molecule B8, the binding result with control CD19 protein is given as “no binding”.
